The source of these data is patent publication US20110059095A1 (Regeneron, published 2011).

Where no end group is shown, it is not given here. The star is where a group is joined. Biotin = O=C1N[C@H]2[C@H](CS[C@H]2CCCCC(=O)*)N1

Test [1] concerns the target T1, Peptide A (human PAR-2), C-terminal biotinylated (Human, C-terminal biotin via G4S linker).
T1 construct: also called Peptide A C-Term
Put plainly: peptide ELISA. The procedure:
(§1) Anti-PAR-2 antibodies were tested for their ability to bind to the PAR-2 peptides. Various PAR-2 Peptides (Table 3) were coated onto 96-well plates at a concentration of 2 μg/ml and incubated overnight followed by blocking in a suitable blocking agent for one hour. […] Purified anti-PAR-2 antibodies were added to the plate coated with PAR-2 peptides to a final concentration ranging from 0.2 to 2.0 μg/ml and incubated for one hour at room temperature. Detection of bound antibodies was determined with Horse-Radish Peroxidase (HRP) conjugated anti-mouse or human IgG (Jackson Immuno Research Lab, West Grove, Pa.) and developed by standard colorimetric response using tetramethylbenzidine (TMB) substrate. Absorbance was read at OD₄₅₀ for 0.1 second.
On the technique in general: An ELISA detects its analyte on a solid surface through an enzyme-linked reagent.

Test [2] addresses T2, Peptide B (human PAR-2), unbiotinylated (Human).
T2 construct: also called Peptide B No Biotin
T2 peptide: SLIGKVDGTSHVTG
Put plainly: peptide ELISA. Here is the method:
as §1

In test [3] the target is T3, Peptide A (human PAR-2), unbiotinylated (Human).
T3 construct: also called Peptide A No Biotin
T3 peptide: GTNRSSKGRSLIGKVDGT
Put plainly: peptide ELISA. The procedure: as §1

The target of test [4] is T4, Peptide B (human PAR-2), C-terminal biotinylated (Human, not fully specified).
T4 construct: also called Peptide B C-Term
T4 peptide: SLIGKVDGTSHVTGGGGGS-biotin
Put plainly: peptide ELISA. The procedure:
as §1

Test [5] addresses T5, Peptide C (human PAR-2), C-terminal biotinylated (Human).
T5 construct: also called Peptide C C-Term
T5 peptide: SLIGKVGGGGS-biotin
Put plainly: peptide ELISA. The procedure: as §1

Test [6] deals with T6, Peptide B (human PAR-2), N-terminal biotinylated (Human).
T6 construct: also called Peptide B N-Term
T6 peptide: Biotin-GGGGSSLIGKVDGTSHVTG
Kind of test: peptide ELISA. Here is the method: as §1

Test [7] deals with T7, Peptide A (human PAR-2), N-terminal biotinylated (Human, N-terminal biotin via G4S linker).
T7 construct: also called Peptide A N-Term
T7 peptide: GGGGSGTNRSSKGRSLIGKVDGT
Put plainly: peptide ELISA. The procedure:
as §1

For test [8], the target named is T8, Peptide C (human PAR-2), N-terminal biotinylated (Human).
T8 construct: also called Peptide C N-Term
T8 peptide: Biotin-GGGGSSLIGKV
Put plainly: peptide ELISA. Here is the method: as §1

In test [9] the target is T3, Peptide A (human PAR-2), unbiotinylated. Put plainly: SPR, antibody captured, steady state. The procedure: (§2) Equilibrium dissociation constants (KD values) for antigen binding to selected purified PAR-2 antibodies were determined by surface kinetics using a real-time surface plasmon resonance biosensor assay. Antibody was captured on either a rabbit anti-mouse IgG polyclonal antibody (GE Healthcare, Piscataway, N.J.) surface or a goat anti-human IgG polyclonal antibody (Jackson Immuno Research Lab, West Grove, Pa.) surface created through direct amine chemical coupling to a BIACORE™ CM5 sensor chip to form a captured antibody surface. […] Antigen-antibody binding and dissociation were monitored in real time at room temperature. Kinetic analysis was performed to calculate KD and half-life of antigen/antibody complex dissociation (Table 10). For those antibodies where no T_{1/2} value is shown, steady state analysis was used to calculate the KD value. NB: no binding observed under current experimental conditions. ND: not determined.
(Surface plasmon resonance follows binding to a sensor surface in real time, without labels.)

Test [10] deals with T9, full length human PAR-2 (human, UniProt P55085 26-397).
T9 construct: overexpressed on HEK293-derived 293/D9 cells; also called 293/D9/hPAR-2rec cells
T9 sequence (P55085 26-397 G138A limits assumed): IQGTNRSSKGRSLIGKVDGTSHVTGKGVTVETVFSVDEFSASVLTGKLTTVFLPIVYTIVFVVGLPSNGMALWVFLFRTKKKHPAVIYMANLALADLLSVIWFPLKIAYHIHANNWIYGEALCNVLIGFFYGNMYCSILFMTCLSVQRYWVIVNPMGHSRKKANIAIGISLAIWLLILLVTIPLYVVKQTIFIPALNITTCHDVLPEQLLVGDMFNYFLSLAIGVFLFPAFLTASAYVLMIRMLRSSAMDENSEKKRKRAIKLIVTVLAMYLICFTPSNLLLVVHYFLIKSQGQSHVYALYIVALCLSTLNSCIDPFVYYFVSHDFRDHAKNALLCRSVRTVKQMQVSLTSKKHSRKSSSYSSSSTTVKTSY
Put plainly: cell ELISA, 10 ug/ml antibody. An excerpt:
HEK293 cells were transfected with an NF-κB-luciferase-IRES-eGFP reporter plasmid. […] A clonal cell line, named D9, having low background levels of luciferase activity and high levels of eGFP when induced with IL-1β was made by a series of successive sorts of cell populations using flow cytometry. The 293/D9 cell line was then separately transfected with human PAR-2 or mouse PAR-2 to create the stable cell lines 293/D9/h PAR-2rec and 293/D9/m PAR-2rec, respectively.
Binding of anti-PAR-2 antibodies to 293/D9/hPAR-2rec cells was determined by ELISA. 293/D9 and 293/D9/hPAR-2rec cells were plated at a density of 5×10⁴ cells/well in media and incubated overnight at 37° C. and 5% CO₂. Purified antibody was added to the cells to a final concentration of 10 μg/ml and incubated at room temperature for one hour. Cells were then fixed and washed before detection of bound antibodies with HRP conjugated anti-mouse IgG and developed by standard colorimetric response using TMB substrate. Absorbance was read at OD₄₅₀ for 0.1 second.

Test [11] addresses T2, Peptide B (human PAR-2), unbiotinylated. Kind of test: SPR, antibody captured. Here is the method: as §2
The target of test [12] is T3, Peptide A (human PAR-2), unbiotinylated. Kind of test: SPR, antibody captured. The procedure:
as §2

B1: H1M615N (antibody, V domains shown)
VH: EVQLVESGGGVVQPGRSLRLSCAASGFTFDDYTMHWVRQVPGKDLKWVSGITWNGGRKAYADSVKGRFTISRDNAKNSLFLQMNSLRAEDTAFYYCAKEDEAFDYWGQGTLVTVSS
VL: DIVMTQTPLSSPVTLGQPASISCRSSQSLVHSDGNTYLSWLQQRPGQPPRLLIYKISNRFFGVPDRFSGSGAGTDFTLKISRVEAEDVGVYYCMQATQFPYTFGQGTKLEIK
notes: chimeric: human variable, mouse constant domains
B1: the OD450 was 1 to 4 od in [1]; 0 to 0.09 od in [2]; 1 to 4 od in test [3]; 0 to 0.09 od in test [4]; 0 to 0.09 od in test [5]; 0 to 0.09 od in test [6]. Moreover, the OD450 in [7] is 1 to 4 od; in [8], 0 to 0.09 od. The Kd (commonly the constant that tells how readily two partners part at equilibrium) in [9] came out at 162 nM. Moreover, the “A450 ratio (293/D9/hPAR-2rec to 293/D9 cells)” value in test [10] was determined as 2.18.

B2: H1M595N (antibody, V domains shown)
VH: EVQLVESGGGLVQPGGSLRLSCAASGFTFSSYDMHWVRQVTGKGLEWVSVIGTVGDTYYPGSLKGRFTISRENAKNSLYLQMNTLRAGDTAVYYCARTGAAAHSYYYGMDVWGQGTMVTVSS
VL: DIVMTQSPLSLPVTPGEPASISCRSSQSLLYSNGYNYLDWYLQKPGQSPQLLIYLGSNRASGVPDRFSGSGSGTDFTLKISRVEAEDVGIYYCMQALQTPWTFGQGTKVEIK
notes: as for B1
Turning to B2, the OD450 in test [1] was in the range of 1 to 4 od; in test [2], 0 to 0.09 od; in [3], 1 to 4 od; in [4], 0 to 0.09 od; in [6] it was 0 to 0.09 od; in [7] it was 1 to 4 od. Moreover, in [8], the OD450 fell in the range of 0.5 to 0.99 od. The molecule further gave a Kd in [9] of 510 nM.

B3: H2M611N (antibody, V domains shown)
VH: EVQLLESGGGLVQPGGSLRLSCAASGFTFSSYAMTWVRQAPGKGLYWVSAISGSGGSAYYADSVKGRFTISRDNSKNTLYLQMNSLRAEDTAVYYCAKEGDSGYDLDYWGRGTLVTVSS
VL: DIQMTQSPSSLSASVGDRVTITCRARQGISNYLAWLQQKPGKAPKSLIYAASSLQSGVPSKFSGSGSGTDFTLTISSLQPEDFATYYCQQYKSSPLTFGGGTKVEIK
notes: as for B1
Regarding B3, the OD450 in test [1] lay within 1 to 4 od; in test [2] it was 1 to 4 od; in [3], 1 to 4 od; in [4], 1 to 4 od; in test [5] it was 0 to 0.09 od; in test [6], 1 to 4 od. The OD450 in [7] was 1 to 4 od; in [8], 0 to 0.09 od. The Kd in test [11] worked out at 1090 nM; in test [12], 72.8 nM. For the same molecule, the T1/2 amounted to 1.2 min in test [11] and 4.1 min in test [12].

B4: H3M620N (antibody, V domains shown)
VH: EVQLVESGGNVVRPGGSLRLSCAASGFTFDDYGMTWVRQVPGKGLEWVSGINWNGGSTDYADSVKGRFTISRDNAKNSLYLQMNSLRAEDTALYYCARDKGFYGMDVWGQGTTVTVSS
VL: DIVMTQSPDSLAVSLGERATINCKSSQNPLYNSNKKKYLAWYQQKPGQPPKLVIYWASTRESGVPDRFSGSGSGTDFTLTITSLQAEDVAVYYCQQYYSTPYTFGQGTKLEIK
notes: as for B1
With B4, the OD450 lay within 1 to 4 od in test [1]; 0 to 0.09 od in test [2]; 1 to 4 od in [3]; 0 to 0.09 od in test [4]; 0 to 0.09 od in test [5]; 0 to 0.09 od in test [6]. In addition, the figures for the OD450 in test [7] and in test [8] were 0.5 to 0.99 od and 0 to 0.09 od, respectively.

B5: H1M612N (antibody, V domains shown)
VH: EVQLVESGGGLVQPGRSLRLSCAASGFTFDDYAMHWVRQAPGKGLEWVSGITWNSGNMAYADSVKGRFTISRDNAKNSLYLQMNSLRAEDTALYYCAKENWAFDYWGQGTRVIVSS
VL: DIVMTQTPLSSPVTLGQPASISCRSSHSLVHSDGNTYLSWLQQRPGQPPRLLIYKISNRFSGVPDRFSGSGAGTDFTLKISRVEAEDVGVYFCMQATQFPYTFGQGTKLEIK
notes: as for B1
As to B5, the OD450 in [1] is 1 to 4 od; in test [2] it was 0 to 0.09 od; in test [3], 1 to 4 od; in test [4], 0 to 0.09 od; in test [5], 0 to 0.09 od; in test [6], 0 to 0.09 od. Also, the OD450 fell in the range of 1 to 4 od in test [7] and 0 to 0.09 od in test [8]. The Kd in [9] came out at 180 nM.

B6: H1M619N (antibody, V domains shown)
VH: EVQLVESGGGLVQAGRSLRLSCAASGFTFDDYAMHWVRQAPGKGLEWVSGISWNSGSRGYADSVKGRFTISRDNAKNSLHLQMYSLRAEDTALYYCAKENWSFDYWGQGTLVTVSS
VL: DIVMTQTPLSSPVTLGQPASISCRSSQSLVHSDGNTYLSWLQQRPGQPPRLLIYKISYRFSGVPDRFSGSGAGTDFTLKISRVATEDVGVYYCMQATQLPYTFGQGTKLEIK
notes: as for B1
As to B6, the OD450 in test [1] was in the range of 1 to 4 od; in [2] it was 0 to 0.09 od; in test [3], 1 to 4 od; in test [4], 0 to 0.09 od; in [5], 0 to 0.09 od; in test [6], 0 to 0.09 od. Further, the OD450 in test [7] is 1 to 4 od; in test [8] it was 0 to 0.09 od. The same molecule gave a Kd in test [9] of 164 nM.

B7: H2M609N (antibody, V domains shown)
VH: EVQLVESGGGLVQPGRSLRLSCAASGFTFDDYAMHWVRQAPGKGLEWVSGISWNSGSKGFADSVKGRFTISRDNAKNSLYLQMNSLRVEDTALYYCAKENWSFDYWGQGTLVTVSS
VL: DIVMTQTPLSSPVTLGQPASISCRSSQSLVHSDGNIYLSWLQQRPGQPPRLLIYKISNRFSGVPDRFSGSGAGTDFTLKISRVEAEDVGIYYCMQASHFPYTFGQGTKLEIK
notes: as for B1
For B7, the OD450 was 1 to 4 od in test [1]; 0 to 0.09 od in [2]; 1 to 4 od in test [3]; 0 to 0.09 od in [4]; 0 to 0.09 od in [5]; 0 to 0.09 od in [6]. Further, the OD450 was in the range of 1 to 4 od in test [7] and 0 to 0.09 od in test [8].

B8: H2M614N (antibody, V domains shown)
VH: EVQLVESGGGLVQPGRSLRLSCAASGFTFDDYAMHWVRQVPGKGLEWVSGITWNSGSIDYADSVKGRFTISRDNAKNSLYLQMNSLRAEDTAFYYCVKEDEAFDYWGQGTLVTVSS
VL: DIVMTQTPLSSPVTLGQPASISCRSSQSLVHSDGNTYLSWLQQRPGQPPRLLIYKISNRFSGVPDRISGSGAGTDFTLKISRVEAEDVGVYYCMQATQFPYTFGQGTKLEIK
notes: as for B1
For the molecule B8, the OD450 in [1] was in the range of 1 to 4 od; in test [2], 0 to 0.09 od; in [3] it was 0.5 to 0.99 od; in test [4], 0 to 0.09 od; in test [5] it was 0 to 0.09 od; in test [6], 0 to 0.09 od. The OD450 fell in the range of 1 to 4 od in [7] and 0 to 0.09 od in test [8]. This molecule also returned a Kd in test [9] of 470 nM.

B9: H1M592N (antibody, V domains shown)
VH: EVQLVESGGGLVQPGRSLRLSCAASGFTFDDYAMHWVRQAPGKGLEWVSGISWNSGSIGYADSVKGRFTISRDNAKNSLYLQMNSLRAEDTALYYCAKDRFPPYKYNSGGFSDAFEIWGQGTMVTVSS
VL: not shown
notes: as for B1
As to B9, the OD450 in [3] fell in the range of 1 to 4 od; in [6], 0.5 to 0.99 od; in test [7], 1 to 4 od; in test [8] it was 1 to 4 od. Also, binding in [9] was put at a Kd of 2100 nM.

B10: H1M613N (antibody, V domains shown)
VH: EVQLVESGGGLVQPGRSLRLSCAASGFTFDDYAMHWVRQAPGKGLEWVSGISWNSGSIGYADSVKGRFTISRDNAKNSLYLQMNSLRAEDTALYYCAKDRFPPYKYNSGGFSDAFEIWGQGTMVTVSS
VL: not shown
notes: as for B1
As for B10, the OD450 was in the range of 1 to 4 od in [3], 0.5 to 0.99 od in [6], 1 to 4 od in [7] and 1 to 4 od in test [8]. In addition, the affinity in [9], expressed as Kd, was 2100 nM.
